# Measurements: US20140335077A1, “Compositions and Methods for the Treatment of Cancer Using IGF-IR Antagonists and MAPK/ERK Inhibitors” (priority 2013, published 2014)
# How the values were obtained:
# Format in all cases: cell-based
# [1] = tested on: A549; test: PrestoBlue cell viability, anti-IGF-1R antibody with U0126, A549 (lung cancer); conditions: 48 h
# Method: Cells were incubated in 96 well tissue culture plates and cell viability was measured by PrestoBlue cell viability assay (Invitrogen, CA, USA) according to manufacturer's instructions. Fluorescence was measured with excitation at 560 nm and emission at 590 nm. Cell number was calculated from standard curves of fluorescence measurements from known numbers of cells. Triplicate cultures were performed on all experiments.
# The effects of anti-IGF-1R antibodies/MEK inhibitor combination treatment on viability of different types of tumor cells were investigated using PrestoBlue cell viability assay (Invitrogen, CA, USA) according to manufacturer's instructions. (Table 3).
# Cells were incubated in serum free medium for 12 h followed by pretreatment for 60 min without or with 0.5, 1, 3 or 5 μM of the ERK inhibitor U0126, and then treated without or with 100 ng/ml anti-IGF-1R antibodies (Figitumumab or αIR-3 (Calbiochem, US). Cells were incubated in 96 well tissue culture plates for 48 hours and cell viability was measured by PrestoBlue cell viability assay. Fluorescence was measured with excitation at 560 nm and emission at 590 nm. Cell number was calculated from standard curves of fluorescence measurements from known numbers of cells. Triplicate cultures were performed on all experiments. The inhibition induced by anti-IGF-1R antibodies treated cells was calculated as percentage of untreated cells.
# [2] = tested on: Ewing's sarcoma (ES) cell lines: SKES, RDES, CADO, A673 and SKNMC; test: Cell viability of Ewing's sarcoma cell lines (PrestoBlue); conditions: 48 h
# Method: FIG. 1A-FIG. 1C. Effects of Figitumumab (CP-751871 (CP)) treatment on cell viability in ES cell lines. (A) Cell lysates were prepared from the indicated cell lines and analyzed by WB for total IGF-1R expression and GAPDH as a loading control. […] Data correspond to the mean±SEM from three independent experiments. […] (C) Indicated cells were treated without and with 100 ng/ml CP for 48 h in the absence (SFM) or presence of 10% fetal bovine serum (Serum) and cell viability assayed by PrestoBlue reagent. […] Data correspond to the mean±SEM from three independent experiments. Statistical analysis compared with SKBR3: *P<0.05, **P<0.01, **P<0.001.
# FIG. 6A-FIG. 6C. […] Cell lysates were prepared from the same samples and analyzed by WB for β-arrestin1 (βarr1) and GAPDH as a loading control. Signals were quantified by densitometry, normalized to GAPDH and presented as a percentage of the doxycycline untreated cells. […] During the experiment, cell lysates were collected at 10 min after CP stimulation and analyzed by WB for P-ERK and total ERK as a loading control and at 12 h after CP stimulation and analyzed by WB for IGF-1R and GAPDH as a loading control. Signals were quantified by densitometry, normalized to the loading control and presented as a percentage of the CP untreated cells. […]
# [3] = molecular target: T1, IGF-1R (Homo sapiens, UniProt P08069); test: IGF-1R ubiquitination in ES cells (immunoprecipitation, WB); conditions: 10 min stimulation, serum starved ES cells; all investigated cell lines
# T1 construct: all the ES cell lines tested expressed IGF-1R; endogenous in cells; host or cells: Ewing's sarcoma cell lines SKES, RDES, CADO, A673, SKNMC
# Method: FIG. 2A-FIG. 2D. Mechanism of CP induced IGF-1R downregulation: β-arrestin1 recruitment and receptor ubiquitination. (A) Cells incubated in serum free medium for 12 h were treated with 0, 0.1 or 1 μg/ml CP for 24 h. Protein lysates were analyzed by WB for IGF-1R and GAPDH as a loading control. […] Protein lysates were analyzed by WB for IGF-1R and GAPDH as a loading control. Signals were quantified by densitometry, normalized to GAPDH and expressed as a percentage of the IGF-1R at 0 h. Data correspond to the mean±SEM from three independent experiments. […] IGF-1R was immunoprecipitated from lysates and analyzed by WB (IB) for ubiquitination (Ub) and IGF-1R as a loading control. Molecular weight markers in KDa are indicated to the left of the panels. (D) β-Arrestin1 (β-arr1) was immunoprecipitated from cell lysates prepared as for (C). Immunoprecipitated proteins were analyzed by WB for IGF-1R. The whole lysates were analyzed by WB for GAPDH as a loading control.
# Cells were lysed with 500 μl lysis buffer (110 mM KOAc, 0.5% (v/v) Triton X-100, 100 mM NaCl, protease inhibitor cocktail tablet (Roche), buffering salts pH 7.4). 500 μg of protein was incubated with Dynabeads protein G (10 μl) (Invitrogen, CA, USA) and 1 μg antibody overnight at 4° C. on a rotator platform. […]
# These trends were confirmed by densitometric quantification of multiple experiments (FIG. 2B, graphs). […]
molecule,measurement,setting,value
"CP-751,871: anti-IGF-1R antibody figitumumab (Pfizer), IGF-1R antagonist (antibody, chains of the INN, looked up) heavy: EVQLLESGGGLVQPGGSLRLSCTASGFTFSSYAMNWVRQAPGKGLEWVSAISGSGGTTFYADSVKGRFTISRDNSRTTLYLQMNSLRAEDTAVYYCAKDLGWSDSYYYYYGMDVWGQGTTVTVSSASTKGPSVFPLAPCSRSTSESTAALGCLVKDYFPEPVTVSWNSGALTSGVHTFPAVLQSSGLYSLSSVVTVPSSNFGTQTYTCNVDHKPSNTKVDKTVERKCCVECPPCPAPPVAGPSVFLFPPKPKDTLMISRTPEVTCVVVDVSHEDPEVQFNWYVDGVEVHNAKTKPREEQFNSTFRVVSVLTVVHQDWLNGKEYKCKVSNKGLPAPIEKTISKTKGQPREPQVYTLPPSREEMTKNQVSLTCLVKGFYPSDIAVEWESNGQPENNYKTTPPMLDSDGSFFLYSKLTVDKSRWQQGNVFSCSVMHEALHNHYTQKSLSLSPG light: DIQMTQFPSSLSASVGDRVTITCRASQGIRNDLGWYQQKPGKAPKRLIYAASRLHRGVPSRFSGSGSGTEFTLTISSLQPEDFATYYCLQHNSYPCSFGQGTKLEIKRTVAAPSVFIFPPSDEQLKSGTASVVCLLNNFYPREAKVQWKVDNALQSGNSQESVTEQDSKDSTYSLSSTLTLSKADYEKHKVYACEVTHQGLSSPVTKSFNRGEC",Percentage inhibition of antibody treated cells (100 ng/ml),[1]; U0126 0 μM (60 min pretreatment),40%
same,Percentage inhibition of antibody treated cells (100 ng/ml),[1]; U0126 0.5 μM (60 min pretreatment),56%
same,Percentage inhibition of antibody treated cells (100 ng/ml),[1]; U0126 1 μM (60 min pretreatment),77%
same,Percentage inhibition of antibody treated cells (100 ng/ml),[1]; U0126 3 μM (60 min pretreatment),88%
same,Percentage inhibition of antibody treated cells (100 ng/ml),[1]; U0126 5 μM (60 min pretreatment),98%
same,Cell viability (cell number) of ES cell lines,"[2]; 100 ng/ml, presence or absence of serum, all ES cell lines",decreased cell number
same,"Sensitivity (cell viability) of combined treatment with MEK inhibitor U0126 versus CP-751,871 alone","[2]; ES cell lines, U0126 pre-treatment 60 min, 100 ng/ml CP",increased sensitivity
same,IGF-1R ubiquitination compared with IGF-1,[3],more potent in generating receptor ubiquitination
